Legend:
nab3_yeast NAB3 = nab3_yeast NAB3 (UniProt P38996)
pp12_yeast GLC7 = pp12_yeast GLC7 (UniProt P32598)
Chain of UniProt P32598 (P32598 whole entry): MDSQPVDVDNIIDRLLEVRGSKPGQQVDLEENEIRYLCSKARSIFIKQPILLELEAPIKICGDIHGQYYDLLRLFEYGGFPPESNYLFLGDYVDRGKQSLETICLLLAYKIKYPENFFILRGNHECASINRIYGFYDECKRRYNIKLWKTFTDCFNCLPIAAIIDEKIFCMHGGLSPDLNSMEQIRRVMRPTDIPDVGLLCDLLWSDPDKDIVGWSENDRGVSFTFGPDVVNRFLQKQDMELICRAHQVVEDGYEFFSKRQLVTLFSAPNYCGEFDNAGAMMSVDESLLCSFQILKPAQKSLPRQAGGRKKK

Chain of UniProt P38996 (P38996 whole entry): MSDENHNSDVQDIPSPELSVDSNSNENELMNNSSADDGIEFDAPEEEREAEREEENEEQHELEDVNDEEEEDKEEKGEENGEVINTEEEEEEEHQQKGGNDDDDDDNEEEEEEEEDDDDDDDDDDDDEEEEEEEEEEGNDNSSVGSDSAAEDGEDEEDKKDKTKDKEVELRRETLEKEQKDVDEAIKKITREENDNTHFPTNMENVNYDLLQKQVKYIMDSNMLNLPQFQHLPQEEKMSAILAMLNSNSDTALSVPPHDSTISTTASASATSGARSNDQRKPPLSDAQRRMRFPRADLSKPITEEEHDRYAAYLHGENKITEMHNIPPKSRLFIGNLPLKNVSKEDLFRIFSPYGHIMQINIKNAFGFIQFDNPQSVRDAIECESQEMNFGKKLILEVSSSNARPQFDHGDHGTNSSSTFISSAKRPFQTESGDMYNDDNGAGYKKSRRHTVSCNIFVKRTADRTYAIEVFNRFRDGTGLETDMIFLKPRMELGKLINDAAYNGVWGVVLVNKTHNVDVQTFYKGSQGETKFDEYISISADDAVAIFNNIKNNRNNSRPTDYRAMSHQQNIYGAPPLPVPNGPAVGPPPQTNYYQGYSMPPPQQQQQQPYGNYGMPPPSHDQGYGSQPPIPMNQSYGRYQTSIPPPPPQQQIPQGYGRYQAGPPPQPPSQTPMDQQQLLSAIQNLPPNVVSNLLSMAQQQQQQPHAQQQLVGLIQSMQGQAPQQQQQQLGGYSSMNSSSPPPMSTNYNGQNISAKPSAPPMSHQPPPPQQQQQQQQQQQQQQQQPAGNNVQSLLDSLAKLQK

| effect of a mutation on the interaction (nab3_yeast NAB3) | effect of a mutation on the interaction (pp12_yeast GLC7) | Substance |
| --- | --- | --- |
| with no effect | disrupting interaction strength | Helicase SEN1 (Saccharomyces cerevisiae), Q00416 F2003A |
| with no effect | with no effect | Helicase SEN1 (Saccharomyces cerevisiae), Q00416 K1999A |
